Numbered stars: 1 amine (or outer) side, 2 acyl side, 3 side chain; on linkers, the order of the positions; unused ones are H or OH. Bridge positions count the residues as written; N and C are the ends. Side chains are listed from the residue outwards. Ends that are not written are not given here. * marks the point of attachment. C20 diacid = O=C(O)CCCCCCCCCCCCCCCCCCC(=O)*; C18 diacid = O=C(O)CCCCCCCCCCCCCCCCC(=O)*; C16 diacid = O=C(O)CCCCCCCCCCCCCCC(=O)*; γGlu = O=C(O)[C@H](CCC(=O)[*:2])N[*:1]; C14 diacid = O=C(O)CCCCCCCCCCCCC(=O)*; AEEA = NCCOCCOCC(=O)O
Tests used:
Experiment in all cases: cell-based or functional assay
[1] = molecular target: T1, human calcitonin receptor (human, UniProt P30988 25-474)
T1 sequence (looked up): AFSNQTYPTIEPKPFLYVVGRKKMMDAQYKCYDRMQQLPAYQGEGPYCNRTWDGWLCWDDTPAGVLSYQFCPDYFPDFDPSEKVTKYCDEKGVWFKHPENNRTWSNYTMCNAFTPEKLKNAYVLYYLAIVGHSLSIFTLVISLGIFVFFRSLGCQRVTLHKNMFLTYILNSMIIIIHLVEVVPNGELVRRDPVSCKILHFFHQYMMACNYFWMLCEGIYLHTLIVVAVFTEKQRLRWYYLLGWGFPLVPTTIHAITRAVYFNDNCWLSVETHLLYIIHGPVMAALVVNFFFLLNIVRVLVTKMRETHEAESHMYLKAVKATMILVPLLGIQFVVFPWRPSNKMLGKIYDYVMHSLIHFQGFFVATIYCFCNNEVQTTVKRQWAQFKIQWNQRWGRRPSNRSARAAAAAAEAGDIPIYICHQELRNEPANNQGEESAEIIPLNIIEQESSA

[2] = molecular target: T2, human amylin 3(a) receptor (human calcitonin receptor + RAMP-3) (human, UniProt P30988 25-474; O60896 24-148, limits assumed)
T2 sequence (looked up) 1: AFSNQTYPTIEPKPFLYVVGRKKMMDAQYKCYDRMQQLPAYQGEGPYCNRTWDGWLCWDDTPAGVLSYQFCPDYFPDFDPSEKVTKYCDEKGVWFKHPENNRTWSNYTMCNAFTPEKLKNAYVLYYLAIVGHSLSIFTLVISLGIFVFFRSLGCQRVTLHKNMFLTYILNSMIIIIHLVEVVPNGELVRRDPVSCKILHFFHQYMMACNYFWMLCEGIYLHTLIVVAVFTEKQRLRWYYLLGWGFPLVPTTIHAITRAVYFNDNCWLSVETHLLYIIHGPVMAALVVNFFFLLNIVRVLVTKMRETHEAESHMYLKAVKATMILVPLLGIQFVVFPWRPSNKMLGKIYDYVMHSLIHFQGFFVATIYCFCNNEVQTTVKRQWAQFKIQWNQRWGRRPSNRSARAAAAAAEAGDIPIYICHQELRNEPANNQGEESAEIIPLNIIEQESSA
T2 sequence (looked up) 2: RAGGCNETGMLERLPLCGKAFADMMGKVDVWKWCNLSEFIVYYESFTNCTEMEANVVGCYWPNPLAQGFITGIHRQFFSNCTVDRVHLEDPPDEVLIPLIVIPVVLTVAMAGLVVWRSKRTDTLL

[3] = molecular target: T3, human calcitonin receptor (human, UniProt P30988 25-474); remark: listed apart in the source
T3 sequence (looked up): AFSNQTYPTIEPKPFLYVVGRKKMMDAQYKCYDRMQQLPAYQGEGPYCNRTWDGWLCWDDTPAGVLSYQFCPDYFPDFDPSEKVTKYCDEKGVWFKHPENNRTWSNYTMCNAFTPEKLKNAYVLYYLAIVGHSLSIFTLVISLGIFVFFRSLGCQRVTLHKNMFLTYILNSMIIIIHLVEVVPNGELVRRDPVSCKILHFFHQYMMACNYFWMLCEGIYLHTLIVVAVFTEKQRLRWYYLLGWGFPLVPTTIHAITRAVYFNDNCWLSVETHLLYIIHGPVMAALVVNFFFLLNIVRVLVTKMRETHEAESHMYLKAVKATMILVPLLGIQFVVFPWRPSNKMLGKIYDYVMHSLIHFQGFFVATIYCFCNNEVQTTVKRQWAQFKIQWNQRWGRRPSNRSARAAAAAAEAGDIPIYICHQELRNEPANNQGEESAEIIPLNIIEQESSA

Row | Binder | hCTR funct. EC50 (pM) [1] [pM] | hAmylin-R funct. EC50 (pM) [2] [pM] | Ratio hCT/hAmylin funct. [3]
1 | K([γGlu-γGlu-C20 diacid])CNTATCATQRLAEFLRHSSPNFGAIPSSTNVGPETY-NH2 (disulfide 2-7 (inferred), Synthetic) | 2360 | – | –
2 | K([γGlu-C20 diacid])CNTATCATQRLAEFLRHSSPNFGAIPSSTNVGHETY-NH2 (disulfide 2-7 (inferred), Synthetic; also called compound 107) | 2540 | – | –
3 | K([γGlu-C16 diacid])CNTATCATQRLANFLRHSSPNFGAIPSSTNVGHNTY-NH2 (disulfide 2-7 (inferred), Synthetic) [N^ε1-[(4S)-4-carboxy-4-(15-carboxypentadecanoylamino)butanoyl]-[Arg17,Pro21,Pro27,His34]-h-amylin] | 2210 | – | –
4 | K([γGlu-γGlu-C20 diacid])CNTATCATQRLADFLRHSSPNFGAIPSSTNVGPRTY-NH2 (disulfide 2-7 (inferred), Synthetic; also called compound 130) | 7280 | – | –
5 | K([γGlu-C20 diacid])CNTATCATQRLAEFLRHSSPNFGAIPSSTNVGPHTY-NH2 (disulfide 2-7 (inferred), Synthetic) | 1450 | – | –
6 | K([γGlu-C14 diacid])CNTATCATQRLANFLRHSSPNFGAIPSSTNVGHNTY-NH2 (disulfide 2-7 (inferred), Synthetic) [N^ε1-[(4S)-4-carboxy-4-(13-carboxytridecanoylamino)butanoyl]-[Arg17,Pro21,Pro27,His34]-h-amylin] | 1090 | – | –
7 | K([γGlu-C20 diacid])CNTATCATQRLAEFLRHSSPNFGAIPSSTNVGRETY-NH2 (disulfide 2-7 (inferred), Synthetic) | 2740 | – | –
8 | K([γGlu-C20 diacid])CNTATCATQRLAEFLRHSSPNFGAIPSSTNVGPRTY-NH2 (disulfide 2-7 (inferred), Synthetic) | 6380 | – | –
9 | K([γGlu-C20 diacid])CNTATCATQRLAEFLRHSSPNFGAIPSSTNVGSHTY-NH2 (disulfide 2-7 (inferred), Synthetic) | 5580 | – | –
10 | K([γGlu-C20 diacid])CNTATCATQRLADFLRHSSPNFGAIPSSTNVGPRTY-NH2 (disulfide 2-7 (inferred), Synthetic) | 3640 | – | –
11 | K([γGlu-γGlu-C20 diacid])CNTATCATQRLADFLRHSSPNFGAIPSSTNVGPETY-NH2 (disulfide 2-7 (inferred), Synthetic) | 843 | – | –
12 | K([γGlu-C18 diacid])CNTATCATQRLANFLRHSSPNFGAIPSSTNVGHNTY-NH2 (disulfide 2-7 (inferred), Synthetic) [N^ε1-[(4S)-4-carboxy-4-(17-carboxyheptadecanoylamino)butanoyl]-[Arg17,Pro21,Pro27,His34]-h-amylin] | 5850 | – | –
13 | K([γGlu-γGlu-C20 diacid])CNTATCATQRLANFLRHSSPNFGAIPSSTPVGPRTY-NH2 (disulfide 2-7 (inferred), Synthetic) | 8660 | – | –
14 | {C20 diacid-γGlu}-GRCNTATCATQRLAAFLRHSSPNFGAIPSSTNVGPNTY-NH2 (disulfide 3-8) | – | 70 | 2.1
15 | {C20 diacid-γGlu}-GRCNTATCATQRLAHFLRHSSPNFGAIPSSTNVGPNTY-NH2 (disulfide 3-8; SMILES CC[C@H](C)[C@H](NC(=O)[C@H](C)NC(=O)CNC(=O)[C@H](Cc1ccccc1)NC(=O)[C@H](CC(N)=O)NC(=O)[C@@H]1CCCN1C(=O)[C@H](CO)NC(=O)[C@H](CO)NC(=O)[C@H](Cc1c[nH]cn1)NC(=O)[C@H](CCCNC(=N)N)NC(=O)[C@H](CC(C)C)NC(=O)[C@H](Cc1ccccc1)NC(=O)[C@H](Cc1c[nH]cn1)NC(=O)[C@H](C)NC(=O)[C@H](CC(C)C)NC(=O)[C@H](CCCNC(=N)N)NC(=O)[C@H](CCC(N)=O)NC(=O)[C@@H](NC(=O)[C@H](C)NC(=O)[C@@H]1CSSC[C@H](NC(=O)[C@H](CCCNC(=N)N)NC(=O)CNC(=O)CC[C@H](NC(=O)CCCCCCCCCCCCCCCCCCC(=O)O)C(=O)O)C(=O)N[C@@H](CC(N)=O)C(=O)N[C@@H]([C@@H](C)O)C(=O)N[C@@H](C)C(=O)N[C@@H]([C@@H](C)O)C(=O)N1)[C@@H](C)O)C(=O)N1CCC[C@H]1C(=O)N[C@@H](CO)C(=O)N[C@@H](CO)C(=O)N[C@H](C(=O)N[C@@H](CC(N)=O)C(=O)N[C@H](C(=O)NCC(=O)N1CCC[C@H]1C(=O)N[C@@H](CC(N)=O)C(=O)N[C@H](C(=O)N[C@@H](Cc1ccc(O)cc1)C(N)=O)[C@@H](C)O)C(C)C)[C@@H](C)O) | – | 62 | 2.9
16 | {C20 diacid-γGlu}-GRCNTATCATQRLAAFLRHSSPNFGAIPSSTNVGHNTY-NH2 (disulfide 3-8; SMILES CC[C@H](C)[C@H](NC(=O)[C@H](C)NC(=O)CNC(=O)[C@H](Cc1ccccc1)NC(=O)[C@H](CC(N)=O)NC(=O)[C@@H]1CCCN1C(=O)[C@H](CO)NC(=O)[C@H](CO)NC(=O)[C@H](Cc1c[nH]cn1)NC(=O)[C@H](CCCNC(=N)N)NC(=O)[C@H](CC(C)C)NC(=O)[C@H](Cc1ccccc1)NC(=O)[C@H](C)NC(=O)[C@H](C)NC(=O)[C@H](CC(C)C)NC(=O)[C@H](CCCNC(=N)N)NC(=O)[C@H](CCC(N)=O)NC(=O)[C@@H](NC(=O)[C@H](C)NC(=O)[C@@H]1CSSC[C@H](NC(=O)[C@H](CCCNC(=N)N)NC(=O)CNC(=O)CC[C@H](NC(=O)CCCCCCCCCCCCCCCCCCC(=O)O)C(=O)O)C(=O)N[C@@H](CC(N)=O)C(=O)N[C@@H]([C@@H](C)O)C(=O)N[C@@H](C)C(=O)N[C@@H]([C@@H](C)O)C(=O)N1)[C@@H](C)O)C(=O)N1CCC[C@H]1C(=O)N[C@@H](CO)C(=O)N[C@@H](CO)C(=O)N[C@H](C(=O)N[C@@H](CC(N)=O)C(=O)N[C@H](C(=O)NCC(=O)N[C@@H](Cc1c[nH]cn1)C(=O)N[C@@H](CC(N)=O)C(=O)N[C@H](C(=O)N[C@@H](Cc1ccc(O)cc1)C(N)=O)[C@@H](C)O)C(C)C)[C@@H](C)O) | – | 109 | 4.9
17 | {C20 diacid-γGlu-AEEA-AEEA}-KCNTATCATQRLAEFLRHSSPNFGAIPSSTNVGSNTP-NH2 (disulfide 2-7; SMILES CC[C@H](C)[C@H](NC(=O)[C@H](C)NC(=O)CNC(=O)[C@H](Cc1ccccc1)NC(=O)[C@H](CC(N)=O)NC(=O)[C@@H]1CCCN1C(=O)[C@H](CO)NC(=O)[C@H](CO)NC(=O)[C@H](Cc1c[nH]cn1)NC(=O)[C@H](CCCNC(=N)N)NC(=O)[C@H](CC(C)C)NC(=O)[C@H](Cc1ccccc1)NC(=O)[C@H](CCC(=O)O)NC(=O)[C@H](C)NC(=O)[C@H](CC(C)C)NC(=O)[C@H](CCCNC(=N)N)NC(=O)[C@H](CCC(N)=O)NC(=O)[C@@H](NC(=O)[C@H](C)NC(=O)[C@@H]1CSSC[C@H](NC(=O)[C@H](CCCCN)NC(=O)COCCOCCNC(=O)COCCOCCNC(=O)CC[C@H](NC(=O)CCCCCCCCCCCCCCCCCCC(=O)O)C(=O)O)C(=O)N[C@@H](CC(N)=O)C(=O)N[C@@H]([C@@H](C)O)C(=O)N[C@@H](C)C(=O)N[C@@H]([C@@H](C)O)C(=O)N1)[C@@H](C)O)C(=O)N1CCC[C@H]1C(=O)N[C@@H](CO)C(=O)N[C@@H](CO)C(=O)N[C@H](C(=O)N[C@@H](CC(N)=O)C(=O)N[C@H](C(=O)NCC(=O)N[C@@H](CO)C(=O)N[C@@H](CC(N)=O)C(=O)N[C@H](C(=O)N1CCC[C@H]1C(N)=O)[C@@H](C)O)C(C)C)[C@@H](C)O, also called compound 20) | – | 80 | 3.6
18 | {C20 diacid-γGlu-γGlu}-KCNTATCATQRLAEFLRHSSPNFGAIPSSTNVGSNTP-NH2 (disulfide 2-7; SMILES CC[C@H](C)[C@H](NC(=O)[C@H](C)NC(=O)CNC(=O)[C@H](Cc1ccccc1)NC(=O)[C@H](CC(N)=O)NC(=O)[C@@H]1CCCN1C(=O)[C@H](CO)NC(=O)[C@H](CO)NC(=O)[C@H](Cc1c[nH]cn1)NC(=O)[C@H](CCCNC(=N)N)NC(=O)[C@H](CC(C)C)NC(=O)[C@H](Cc1ccccc1)NC(=O)[C@H](CCC(=O)O)NC(=O)[C@H](C)NC(=O)[C@H](CC(C)C)NC(=O)[C@H](CCCNC(=N)N)NC(=O)[C@H](CCC(N)=O)NC(=O)[C@@H](NC(=O)[C@H](C)NC(=O)[C@@H]1CSSC[C@H](NC(=O)[C@H](CCCCN)NC(=O)CC[C@H](NC(=O)CC[C@H](NC(=O)CCCCCCCCCCCCCCCCCCC(=O)O)C(=O)O)C(=O)O)C(=O)N[C@@H](CC(N)=O)C(=O)N[C@@H]([C@@H](C)O)C(=O)N[C@@H](C)C(=O)N[C@@H]([C@@H](C)O)C(=O)N1)[C@@H](C)O)C(=O)N1CCC[C@H]1C(=O)N[C@@H](CO)C(=O)N[C@@H](CO)C(=O)N[C@H](C(=O)N[C@@H](CC(N)=O)C(=O)N[C@H](C(=O)NCC(=O)N[C@@H](CO)C(=O)N[C@@H](CC(N)=O)C(=O)N[C@H](C(=O)N1CCC[C@H]1C(N)=O)[C@@H](C)O)C(C)C)[C@@H](C)O, also called compound 14) | – | 146 | 1.6

Source: patent US20140087995A1 (published 2014)
